# Measured values taken from publication PMC6423188, “HYNIC and DOMA conjugated radiolabeled bombesin analogs as receptor-targeted probes for scintigraphic detection of breast tumor” (EJNMMI Research, 2019).
# Columns and labels:
# [1] = tested on: MDA-MB-231 tumor-bearing mice; experiment: In vivo biodistribution; parameters: species or system mouse; details: for Tumor uptake: MDA-MB-231 tumor; for Tumor uptake / Blood uptake / Heart uptake / Intestine uptake / Kidney uptake / Liver uptake / Lung uptake / Muscle uptake / Pancreas uptake / Spleen uptake / Stomach uptake / Urine + urinary bladder uptake: mean ± SD, n = 3
# Experimental: All animal experiments were done according to the CSIR-IICB Animal Ethics Committee’s rules and regulation. Forty-eight hours before tumor cell implantation, an immunosuppressive drug (cyclosporine-A) was given intraperitoneal (i.p) at a concentration of 30 mg/kg/day. After that, MDA-MB-231 cells (5 × 10^6) 0.2 mL were implanted subcutaneously into the left flanks of the hind leg of BALB/c mice. Thereafter, the same dose of cyclosporine was given i.p. daily up to 2 weeks. Two weeks after inoculation of the tumor cells, when tumors reached ~ 0.5 cm in mean diameter, the tumor-bearing mice were used for biodistribution and imaging studies. Animals were monitored daily and their weights were recorded. Control group of mice received only 0.9 wt% saline. After cell implantation, the growth rate of the breast tumor followed a satisfactory pattern of spheroid shape and tumors are palpable within 2 to 4 weeks. MDA-MB-231 cell implanted mice tumor models were used for biodistribution and planar imaging studies of these radiolabeled new bombesin analogs.
# In tissue biodistribution studies, tumor-bearing animals were divided into four groups and well hydrated for 1 h by intraperitoneal administration of saline (0.9%, 2 mL). Three animals per groups were used for biodistribution studies. After that, the radiolabeled new bombesin analogs (^99mTc-BN) were injected intravenously in each animal of each group consequently through the tail vein [24–27]. After 5, 30, 60, and 120 min intravenous administrations of radiolabeled analogs, the animals were sacrificed; blood, heart, lung, liver, kidney, stomach, intestine, spleen, pancreas, brain, muscle, and tumor were excised, weighed, and counted for radioactivity. The organ uptake was calculated as a percentage of the injected activity per gram of wet tissue (%IA/g). In order to evaluate whether binding of bombesin analogs to MDA-MB-231 cells in vivo is specific; blocking studies with ^99mTc-labeled bombesin analogs in tumor-bearing mice were carried out. Groups of three animals were injected 0.03 nmol of ^99mTc-labeled BN analogs (2 MBq) with 25 nmol of non-radiolabeled BN peptide. After 60 min and 120 min, mice were sacrificed and the organs were collected. Each organ was weighed and counted in a gamma counter along with activity standard and percentage of injected activity per gram (%IA/g) of tissue was calculated for each type of tissues. Counts were corrected for background radiation and physical decay of the radioactivity. The uptake was expressed in the percentage of injected activity per gram of each organ (%IA/g). Data were analyzed statistically by the t test, with the level of significance set at P < 0.05.
# [2] = physchem; type: physicochemical; details: pH 7.4
# Experimental: Lipophilicity of the HPLC-purified radiopeptide analogs was determined through octanol/water partition coefficients, determined at pH 7.4 by measuring the distribution of the HPLC purified radiolabeled peptides in 1-octanol and PBS. Then, 50 μL HPLC purified ^99mTc-BN1/^99mTc-BN2/^99mTc-BN3/^99mTc-BN4/^99mTc-BNS with 100 μCi of radiolabeled compound in PBS was added to a to a centrifuge tube containing 1 mL n-octanol and 1 mL PBS (0.025 M, pH 7.4). The tube was vortexed at room temperature for 2 min and they are centrifuged at 5000 rpm for 5 min to ensure complete separation of layers. Further, 100 μL of each phase was transferred into a separate pre-weighed vial and measured in the well γ-counter. The ratio of octanol layer counts to aqueous layer counts was expressed as the distribution coefficient (D, the appropriate descriptor for ionizable compounds) and logD was used for determination of lipophilicity. Counts per unit weight of the sample were calculated, and logD value as calculated as follows:
# log10D = log10 [(cpm in octanol – cpm in background) / (cpm in buffer – cpm in background)]
# [3] = in vitro; type: in vitro ADME; details: rat
# Experimental: An aliquot (100 μL) of ^99mTc-BN1/^99mTc-BN2/^99mTc-BN3/^99mTc-BN4/^99mTc-BNS was added to 1 mL of freshly collected rat serum in centrifuge tube. The mixture was then incubated at 37 °C for 1 h; the serum protein was precipitated by adding 1 mL trichloroacetic acid (10%, V/V). The supernatant and precipitate were separated by centrifugation at 3000 rpm for 5 min. Radioactivities of both the phases were measured separately. The above experimental procedure was repeated three times. The percentage of protein binding was determined as: Plasma protein binding % = (precipitate counts (CPM) / [precipitate counts (CPM) + plasma counts (CPM)]) × 100%.
# [4] = 60 min p.i., blocked with excess non-radiolabeled BN peptide
substance,measurement,setting,value
"^99mTc-BN(7-14)NH2 [99mTc-BNS, reference compound]",Tumor uptake,"[1]; 5 min p.i., i.v.",0.45 ± 0.12 %IA/g
same,Blood uptake,"[1]; 5 min p.i., i.v.",1.25 ± 0.05 %IA/g
same,Heart uptake,"[1]; 5 min p.i., i.v.",1.80 ± 0.02 %IA/g
same,Intestine uptake,"[1]; 5 min p.i., i.v.",0.84 ± 0.03 %IA/g
same,Kidney uptake,"[1]; 5 min p.i., i.v.",2.86 ± 0.10 %IA/g
same,Liver uptake,"[1]; 5 min p.i., i.v.",1.60 ± 0.07 %IA/g
same,Lung uptake,"[1]; 5 min p.i., i.v.",1.35 ± 0.04 %IA/g
same,Muscle uptake,"[1]; 5 min p.i., i.v.",0.16 ± 0.03 %IA/g
same,Pancreas uptake,"[1]; 5 min p.i., i.v.",0.88 ± 0.01 %IA/g
same,Spleen uptake,"[1]; 5 min p.i., i.v.",0.22 ± 0.04 %IA/g
same,Stomach uptake,"[1]; 5 min p.i., i.v.",0.76 ± 0.03 %IA/g
same,Urine + urinary bladder uptake,"[1]; 5 min p.i., i.v.",0.56 ± 0.02 %IA/g
same,Tumor uptake,"[1]; 30 min p.i., i.v.",0.95 ± 0.05 %IA/g
same,Blood uptake,"[1]; 30 min p.i., i.v.",1.02 ± 0.03 %IA/g
same,Heart uptake,"[1]; 30 min p.i., i.v.",1.10 ± 0.01 %IA/g
same,Intestine uptake,"[1]; 30 min p.i., i.v.",0.52 ± 0.05 %IA/g
same,Kidney uptake,"[1]; 30 min p.i., i.v.",3.12 ± 0.20 %IA/g
same,Liver uptake,"[1]; 30 min p.i., i.v.",0.85 ± 0.06 %IA/g
same,Lung uptake,"[1]; 30 min p.i., i.v.",0.84 ± 0.11 %IA/g
same,Muscle uptake,"[1]; 30 min p.i., i.v.",0.26 ± 0.02 %IA/g
same,Pancreas uptake,"[1]; 30 min p.i., i.v.",1.73 ± 0.10 %IA/g
same,Spleen uptake,"[1]; 30 min p.i., i.v.",0.18 ± 0.03 %IA/g
same,Stomach uptake,"[1]; 30 min p.i., i.v.",0.69 ± 0.05 %IA/g
same,Urine + urinary bladder uptake,"[1]; 30 min p.i., i.v.",1.92 ± 0.07 %IA/g
same,tumor/kidney ratio,[1]; 60 min p.i.,0.26
same,Tumor uptake,[1]; [4],0.68 ± 0.20 %IA/g
same,Blood uptake,[1]; [4],0.84 ± 0.01 %IA/g
same,Heart uptake,[1]; [4],0.77 ± 0.11 %IA/g
same,Intestine uptake,[1]; [4],0.36 ± 0.02 %IA/g
same,Kidney uptake,[1]; [4],2.88 ± 0.12 %IA/g
same,Liver uptake,[1]; [4],0.42 ± 0.04 %IA/g
same,Lung uptake,[1]; [4],0.70 ± 0.05 %IA/g
same,Muscle uptake,[1]; [4],0.17 ± 0.03 %IA/g
same,Pancreas uptake,[1]; [4],0.90 ± 0.02 %IA/g
same,Spleen uptake,[1]; [4],0.10 ± 0.03 %IA/g
same,Stomach uptake,[1]; [4],0.45 ± 0.01 %IA/g
same,Urine + urinary bladder uptake,[1]; [4],2.58 ± 0.18 %IA/g
same,Tumor uptake,"[1]; 60 min p.i., i.v.",0.75 ± 0.04 %IA/g
same,Blood uptake,"[1]; 60 min p.i., i.v.",0.82 ± 0.01 %IA/g
same,Heart uptake,"[1]; 60 min p.i., i.v.",0.79 ± 0.12 %IA/g
same,Intestine uptake,"[1]; 60 min p.i., i.v.",0.31 ± 0.02 %IA/g
same,Kidney uptake,"[1]; 60 min p.i., i.v.",2.82 ± 0.16 %IA/g
same,Liver uptake,"[1]; 60 min p.i., i.v.",0.40 ± 0.05 %IA/g
same,Lung uptake,"[1]; 60 min p.i., i.v.",0.68 ± 0.03 %IA/g
same,Muscle uptake,"[1]; 60 min p.i., i.v.",0.18 ± 0.04 %IA/g
same,Pancreas uptake,"[1]; 60 min p.i., i.v.",1.14 ± 0.05 %IA/g
same,Spleen uptake,"[1]; 60 min p.i., i.v.",0.11 ± 0.02 %IA/g
same,Stomach uptake,"[1]; 60 min p.i., i.v.",0.46 ± 0.04 %IA/g
same,Urine + urinary bladder uptake,"[1]; 60 min p.i., i.v.",2.54 ± 0.22 %IA/g
same,Tumor uptake,"[1]; 120 min p.i., i.v.",0.58 ± 0.01 %IA/g
same,Blood uptake,"[1]; 120 min p.i., i.v.",0.54 ± 0.01 %IA/g
same,Heart uptake,"[1]; 120 min p.i., i.v.",0.50 ± 0.01 %IA/g
same,Intestine uptake,"[1]; 120 min p.i., i.v.",0.22 ± 0.01 %IA/g
same,Kidney uptake,"[1]; 120 min p.i., i.v.",2.40 ± 0.12 %IA/g
same,Liver uptake,"[1]; 120 min p.i., i.v.",0.22 ± 0.02 %IA/g
same,Lung uptake,"[1]; 120 min p.i., i.v.",0.33 ± 0.02 %IA/g
same,Muscle uptake,"[1]; 120 min p.i., i.v.",0.11 ± 0.02 %IA/g
same,Pancreas uptake,"[1]; 120 min p.i., i.v.",0.95 ± 0.04 %IA/g
same,Spleen uptake,"[1]; 120 min p.i., i.v.",0.06 ± 0.11 %IA/g
same,Stomach uptake,"[1]; 120 min p.i., i.v.",0.12 ± 0.02 %IA/g
same,Urine + urinary bladder uptake,"[1]; 120 min p.i., i.v.",2.85 ± 0.03 %IA/g
same,logD,[2],− 0.42 ± 0.10
same,Percentage of plasma protein binding,[3],54%
